Assay [1] deals with RsrA (Streptomyces coelicolor) (UniProt Q7AKG8). The following applies: cited from earlier work.
The target in assay [2] is Anti-σ domain (ASD) of Mycobacterium tuberculosis RslA (residues 1–108), Zn2+-bound (Mycobacterium tuberculosis) (UniProt P9WJ67). Kind of assay: crystal structure.
Sequence of Anti-σ domain (ASD) of Mycobacterium tuberculosis RslA (residues 1–108), Zn2+-bound (Mycobacterium tuberculosis) (P9WJ67 1-108): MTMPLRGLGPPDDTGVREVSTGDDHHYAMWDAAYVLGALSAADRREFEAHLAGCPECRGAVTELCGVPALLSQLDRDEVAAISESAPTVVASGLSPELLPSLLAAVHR

Sequence of RsrA (Streptomyces coelicolor) (Q7AKG8 whole entry, the tested form may be a part): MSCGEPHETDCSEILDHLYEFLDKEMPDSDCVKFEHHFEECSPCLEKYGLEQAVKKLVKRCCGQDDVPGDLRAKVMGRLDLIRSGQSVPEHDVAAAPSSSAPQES
Sequence of σR (Q7AKG9 whole entry): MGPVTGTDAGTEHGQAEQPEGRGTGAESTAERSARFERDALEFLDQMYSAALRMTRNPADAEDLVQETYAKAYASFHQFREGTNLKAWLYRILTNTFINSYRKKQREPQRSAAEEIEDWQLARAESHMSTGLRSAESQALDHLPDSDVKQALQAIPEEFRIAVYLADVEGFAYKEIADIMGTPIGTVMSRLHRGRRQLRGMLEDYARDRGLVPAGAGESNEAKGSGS

As to σR (from UniProt Q7AKG9), the dissociation constant Kd in assay [1] was 10 nM.
Turning to “σ4^L, the −35-element recognition domain of Mycobacterium tuberculosis σ^L (from UniProt P9WGH5 99-177) (domain or fragment)”, in assay [2], the stoichiometry N amounted to 1.

What is called Kd is the equilibrium constant for the complex coming apart. As usually defined, the stoichiometry N is a count of units in the complex or per binding partner.
